Experimental findings from patent publication US20170119790A1, “Agents, Uses and Methods” (CYTOGUIDE A/S, priority 2009, published 2017) are described below.

Assay type in all cases: binding
For one assay, the target named is T1, human CD163 R60D (Homo sapiens, UniProt Q86VB7, R112D).
T1 construct: a pcDNA5-FRT-humanCD163 plasmid harboring the full length human CD163 cDNA; expressed in transfected cells; host or cells: HEK 293, transient
As to the kind of experiment: Western blotting of human CD163 and knock out mutants. From the text:
(§1) For the mutant generation the Site-directed Ligation Independent Mutagenesis (SLIM) method was used (1). Primers are listed in the primer table. The template for the generation of the two first mutants was a pcDNA5-FRT-humanCD163 plasmid harboring the full length human CD163 cDNA. The primers LKI FT, RT, F, and R were used to generate the mutant plasmid pcDNA5-FRT-humanCD163 (VKVQEE-->LKIHEK). The primers R60D FT, RT, F, and R were used to generate the mutant plasmid pcDNA5-FRT-humanCD163 (R60D). Generation of a double mutant was done by performing a SLIM reaction on pcDNA5-FRT-humanCD163 (VKVQEE-->LKIHEK) with the primers R60D FT, RT, F, and R.
(§2) Each cell pellet was added 1 ml lysis buffer (10 mM Tris pH 8, 140 mM NaCl, 15 mM MgSO4, 1% Triton X-100) and incubated for 15 min at 4 °C with rotation. After centrifugation for 30 min at 6000 rpm the supernatants were sterile filtered.
(§3) 90 μl of each of the supernatants were added 30 μl of 4×LDS sample buffer. 3×20 μl samples of each supernatant and 8 μl SeeBlue plus2 prestained marker were loaded on NuPage 4-12% Bis-Tris-Gels (Invitrogen, Taastrup, Denmark) and the SDS-PAGEs were run with MOPS running buffer according to instructions of the manufacturer (200 V constant for 50 min). Blotting to PVDF membranes (Invitrogen, Taastrup, Denmark) was done on an iBLOT device according to instructions of the manufacturer. […]
(In general: In western blotting, separated proteins are transferred to a membrane and probed.)

The target in assay [1] is T2, human CD163 LKIHEK containing mutants (VKVQEE-->LKIHEK and double mutant) (Homo sapiens, UniProt Q86VB7, E71K/Q69H/V66L/V68I).
T2 construct: a pcDNA5-FRT-humanCD163 plasmid harboring the full length human CD163 cDNA; expressed in transfected cells; host or cells: HEK 293, transient
T2 sequence (Q86VB7 42-1156 V66L/V68I/Q69H/E71K): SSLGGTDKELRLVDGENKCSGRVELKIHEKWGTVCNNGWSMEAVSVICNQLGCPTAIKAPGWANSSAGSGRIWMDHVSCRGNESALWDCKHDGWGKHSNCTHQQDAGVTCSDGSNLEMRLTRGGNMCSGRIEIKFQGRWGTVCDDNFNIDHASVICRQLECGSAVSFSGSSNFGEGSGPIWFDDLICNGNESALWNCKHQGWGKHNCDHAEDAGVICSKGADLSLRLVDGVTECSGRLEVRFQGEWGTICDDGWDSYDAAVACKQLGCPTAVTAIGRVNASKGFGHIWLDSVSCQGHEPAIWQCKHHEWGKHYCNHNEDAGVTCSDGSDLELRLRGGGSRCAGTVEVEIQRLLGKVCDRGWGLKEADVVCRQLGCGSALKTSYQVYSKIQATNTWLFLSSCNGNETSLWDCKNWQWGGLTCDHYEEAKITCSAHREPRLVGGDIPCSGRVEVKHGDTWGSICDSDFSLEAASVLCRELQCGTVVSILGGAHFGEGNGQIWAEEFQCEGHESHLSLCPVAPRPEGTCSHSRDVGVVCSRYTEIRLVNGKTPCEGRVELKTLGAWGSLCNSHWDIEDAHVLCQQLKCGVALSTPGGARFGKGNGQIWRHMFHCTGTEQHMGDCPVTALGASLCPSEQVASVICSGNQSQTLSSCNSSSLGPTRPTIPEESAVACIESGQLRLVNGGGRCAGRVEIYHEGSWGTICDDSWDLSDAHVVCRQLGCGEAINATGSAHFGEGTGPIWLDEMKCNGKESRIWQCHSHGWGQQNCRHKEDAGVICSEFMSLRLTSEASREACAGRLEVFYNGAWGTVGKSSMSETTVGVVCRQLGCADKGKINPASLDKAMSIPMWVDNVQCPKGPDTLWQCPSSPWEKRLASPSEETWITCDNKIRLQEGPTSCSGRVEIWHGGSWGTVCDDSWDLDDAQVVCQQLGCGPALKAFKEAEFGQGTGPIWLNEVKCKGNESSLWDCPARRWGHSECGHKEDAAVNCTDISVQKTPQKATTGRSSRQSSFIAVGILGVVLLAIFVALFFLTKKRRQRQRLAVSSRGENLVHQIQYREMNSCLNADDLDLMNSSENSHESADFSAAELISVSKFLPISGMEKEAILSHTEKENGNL
The description is as above.
Source text: as §1, §2, §3

The target of assay [2] is T3, mouse CD163 1-5 LKIHDK-->VKVQEE, Y60R mutant (Mus musculus, UniProt Q2VLH6, D69E/H68Q/I67V/K70E/L65V/Y111R).
T3 construct: A mutant (LKIHDK-->VKVQEE, Y60R) in domain 1 of mouse CD163 1-5; host or cells: Lenti-X 293T, transient; captured from supernatant on Ni-NTA
T3 sequence (Q2VLH6 39-577 L65V/I67V/H68Q/D69E/K70E/Y111R): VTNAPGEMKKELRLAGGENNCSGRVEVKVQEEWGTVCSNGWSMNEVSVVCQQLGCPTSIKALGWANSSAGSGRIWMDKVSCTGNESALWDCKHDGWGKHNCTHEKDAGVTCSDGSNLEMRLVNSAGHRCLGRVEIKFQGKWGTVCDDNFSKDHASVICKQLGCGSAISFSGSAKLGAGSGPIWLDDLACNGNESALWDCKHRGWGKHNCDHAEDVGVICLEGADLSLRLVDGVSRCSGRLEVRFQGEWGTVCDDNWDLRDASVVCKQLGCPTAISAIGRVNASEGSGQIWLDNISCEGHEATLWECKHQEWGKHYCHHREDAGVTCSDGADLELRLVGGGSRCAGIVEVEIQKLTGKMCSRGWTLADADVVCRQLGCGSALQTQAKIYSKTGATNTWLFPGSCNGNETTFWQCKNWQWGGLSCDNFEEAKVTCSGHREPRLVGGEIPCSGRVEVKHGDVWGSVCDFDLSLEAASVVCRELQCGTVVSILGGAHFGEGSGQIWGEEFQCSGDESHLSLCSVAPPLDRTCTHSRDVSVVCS
In words: Western blotting of mouse CD163 and knock in mutant. As to the method:
CD163 domain 1-5 was used for expression of mouse CD163 domain 1-5/V5/His. A mutant (LKIHDK-->VKVQEE, Y60R) in domain 1 of mouse CD163 1-5 was ordered as midiprep at GenScript (Piscataway, N.J., USA). Sequences DNA and protein of mutants are show below (mutant only domain 1).
The mouse CD163 1-5 and the mouse CD163 domain 1 mutant were expressed transient in Lenti-X 293T cells as follows: 1.5 μg of the DNA was diluted in OptiCHOPro SFM (8 mM L-glutamine) to a total volume of 50 μl The DNA was gently mixed with 50 μl of OptiCHOPro SFM containing 1.5 μl Freestyle MAX transfection reagent (Invitrogen, Taastrup, Denmark). After 10 min of incubation at room temperature the complexes were added to 1×10^6 cells in 1 ml. Three days later, the cell supernatants were harvested by centrifugation.
Tris pH 8 buffer, and cell culture supernatants were added 60 μl of Ni-NTA His-bind resin slurry. After 1 hour shaking at 4° C. the supernatants were aspired and each of the purifications were eluted with 90 μl 50 mM Tris pH 8, 25 mM EDTA buffer.
90 μl of each of the eluates were added 30 μl of 4×LDS sample buffer. 20 μl samples of each supernatant and 8 μl SeeBlue plus2 prestained marker were loaded on NuPage 4-12% Bis-Tris-Gels (Invitrogen, Taastrup, Denmark) and the SDS-PAGEs were run with MOPS running buffer according to instructions of the manufacturer (200 V constant for 50 min). […]

T1 sequence (Q86VB7 42-1156 R112D): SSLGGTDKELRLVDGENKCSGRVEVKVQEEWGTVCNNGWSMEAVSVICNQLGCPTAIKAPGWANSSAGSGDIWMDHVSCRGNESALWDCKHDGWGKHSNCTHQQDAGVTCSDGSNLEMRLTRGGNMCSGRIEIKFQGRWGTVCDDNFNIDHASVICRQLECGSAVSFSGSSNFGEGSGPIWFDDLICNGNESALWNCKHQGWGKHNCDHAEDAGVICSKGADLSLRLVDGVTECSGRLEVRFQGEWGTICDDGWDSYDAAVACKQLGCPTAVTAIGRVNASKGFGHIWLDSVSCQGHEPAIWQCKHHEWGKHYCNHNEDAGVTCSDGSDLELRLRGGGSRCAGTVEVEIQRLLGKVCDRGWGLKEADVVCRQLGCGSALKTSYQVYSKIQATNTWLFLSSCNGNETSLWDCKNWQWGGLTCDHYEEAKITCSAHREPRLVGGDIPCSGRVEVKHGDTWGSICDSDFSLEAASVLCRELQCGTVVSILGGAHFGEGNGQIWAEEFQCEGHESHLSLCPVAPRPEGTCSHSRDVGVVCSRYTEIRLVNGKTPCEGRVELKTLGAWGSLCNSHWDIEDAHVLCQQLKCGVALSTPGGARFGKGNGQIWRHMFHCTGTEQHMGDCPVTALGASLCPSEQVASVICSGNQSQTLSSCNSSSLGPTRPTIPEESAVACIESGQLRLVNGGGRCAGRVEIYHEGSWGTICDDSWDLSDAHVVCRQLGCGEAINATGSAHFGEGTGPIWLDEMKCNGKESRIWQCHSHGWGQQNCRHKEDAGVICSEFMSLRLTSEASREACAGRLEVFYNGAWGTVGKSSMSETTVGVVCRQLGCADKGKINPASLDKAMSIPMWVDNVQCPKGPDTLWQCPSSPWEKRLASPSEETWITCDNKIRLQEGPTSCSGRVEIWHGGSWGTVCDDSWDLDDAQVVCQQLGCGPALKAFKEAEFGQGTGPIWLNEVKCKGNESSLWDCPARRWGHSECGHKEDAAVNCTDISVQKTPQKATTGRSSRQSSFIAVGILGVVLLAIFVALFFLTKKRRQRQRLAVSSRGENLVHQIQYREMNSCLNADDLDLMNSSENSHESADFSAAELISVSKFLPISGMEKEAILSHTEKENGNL

B1: MAC2-158: anti-human CD163 murine mAb, binds SRCR domain 1, IQ Products; VH SEQ ID NO: 1, VL SEQ ID NO: 2 (antibody, V domains shown)
VH: DVQLQESGPGLVKPSQSLSLTCTVTGYSITSDYAWNWIRQFPGNKLEWMGYITYSGITNYNPSLKSQISITRDTSKNQFFLQLNSVTTEDTATYYCVSGTYYFDYWGQGTTLTVSS
VL: SVVMTQTPKSLLISIGDRVTITCKASQSVSSDVAWFQQKPGQSPKPLIYYASNRYTGVPDRFTGSGYGTDFTFTISSVQAEDLAVYFCGQDYTSPRTFGGGTKLEIKRA
modifications: Mac2-158 VH; Mac2-158 VL
Take B1: the “binding in western blot” value is given as “very weak” in the assay with human CD163 R60D, “No binding was detected” in assay [1] and “did bind” in assay [2].
